In patent publication US9289507B2, “Carriers for improved drug delivery” (Extend Biosciences, Inc., priority 2012, dated 2016):
Where two headings read alike, the source gives them in different places.

Columns and labels:
[1] = set-up: species or system Sprague Dawley rats; conditions: rat, in vivo, sc, 1 mg/kg
Procedure: Infliximab, sold as a lyophilized powder with the appropriate salts (Hannah Pharmaceuticals), was resuspended to a concentration of 10 mg/mL with water. The Vitamin D3-PEG-NHS carrier was resuspended at a concentration of 10 mg/mL in DMSO. The Vitamin D3-PEG-NHS carrier and the infliximab were then mixed at a molar ratio of 5:1 and 10:1 carrier to infliximab. […] By using an NHS version of the carrier, more than one carrier can be attached to a therapeutic protein and this can be experimentally controlled by altering the molar ratio of carrier to target therapeutic in the reaction. In this example, a target distribution of 2-4 carriers was set as a desired parameter.
The dose was 1 mg/kg in all test groups with three rats per group. Serum samples were collected pre-dosing and at various times from 5 min to 48 hrs post injection. Serum samples were then analyzed by ELISA using an ELISA kit specific for determining the levels of infliximab in serum (Promonitor™, Progenika™). Pharmacokinetic parameters were determined using WinNonLin.

[2] = 1 mg/kg, cited from earlier work
[3] = FGF21 in its natural state; cited from earlier work

Molecule: infliximab: Monoclonal antibody that binds tumor necrosis factor alpha (TNF-α) [reference compound]
- serum concentration at 24 hr [1]: 2100 ng/mL
- serum concentration at 48 hr [1]: 4800 ng/mL

B1: FGF21: Fibroblast growth factor 21 in its natural state (SEQ ID:2), literature values (protein, listed as Homo sapiens)
chain: HPIPDSSPLLQFGGQVRQRYLYTDDAQQTEAHLEIREDGTVGGAADQSPESLLQLKALKPGVIQILGVKTSRFLCQRPDGALYGSLHFDPEACSFRELLLEDGYNVYQSEAHGLPLHLPGNKSPHRDPAPRGPARFLPLPGLPPALPEPPGILAPQPPDVGSSDPLSMVGPSQGRSPSYAS
- Cmax ([2]; intravenous route): 1890 nM
- Cmax ([2]; subcutaneous route): 73 nM
- half-life in serum [3]: 1.1 h
